The values that follow come from patent US20250277030A1, “ANTI-NAPI2B ANTIBODIES AND METHODS OF USE” (Zymeworks BC Inc., priority 2022, published 2025).

Data set [1] addresses T1, NaPi2b expressed on IGROV-1 cells (Homo sapiens, UniProt O95436).
T1 construct: IGROV-1 cells express endogenous NaPi2b at a high level; endogenous in cells; host or cells: IGROV-1
T1 sequence (O95436 1-690): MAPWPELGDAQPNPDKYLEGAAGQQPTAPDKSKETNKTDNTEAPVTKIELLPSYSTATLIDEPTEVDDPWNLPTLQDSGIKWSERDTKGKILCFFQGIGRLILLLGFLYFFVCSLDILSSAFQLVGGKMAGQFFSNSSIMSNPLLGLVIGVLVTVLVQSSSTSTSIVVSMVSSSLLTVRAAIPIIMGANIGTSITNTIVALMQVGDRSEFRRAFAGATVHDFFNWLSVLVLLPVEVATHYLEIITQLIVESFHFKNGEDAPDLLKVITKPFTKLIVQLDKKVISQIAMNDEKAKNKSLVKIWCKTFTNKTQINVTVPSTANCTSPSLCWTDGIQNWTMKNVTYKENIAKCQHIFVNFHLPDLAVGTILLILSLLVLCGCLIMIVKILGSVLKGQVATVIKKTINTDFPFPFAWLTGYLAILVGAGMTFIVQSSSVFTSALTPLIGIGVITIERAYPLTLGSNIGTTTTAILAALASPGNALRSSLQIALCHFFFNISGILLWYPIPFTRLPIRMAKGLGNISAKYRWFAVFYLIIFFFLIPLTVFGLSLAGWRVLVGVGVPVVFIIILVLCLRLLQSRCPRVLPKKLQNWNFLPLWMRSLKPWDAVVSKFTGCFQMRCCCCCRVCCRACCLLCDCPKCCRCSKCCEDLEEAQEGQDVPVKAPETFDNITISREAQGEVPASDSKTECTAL
Briefly: Cellular binding of antibody and ADCs to IGROV-1 cells by flow cytometry (Example 14). As to the method: Briefly, HEK293-6e cells were transfected for ˜24 hours to transiently express human NaPi2b, cynomolgus or mouse NaPi2b, at 1 μg of DNA per 1 million cells. Following transfection, 50,000 cells per well were seeded in V-bottom 96-well plates and incubated with 200 nM of primary antibody for 18-24 hours at 4° C. to prevent internalization. Post-incubation, cells were washed and stained with anti-Human IgG Fc AF647 conjugate (Jackson Immuno Research Labs, West Grove, PA, Cat. No. 109-605-098, Lot. No. 124868) at 4° C. for 1 hour. Following staining and washing, fluorescence was detected by flow cytometry on BD LSRFortessa™ Cell Analyzer (BD Biosciences, Franklin Lake, NJ) with 10,000 minimum events collected per well. The AF647/APC-A GeoMean (fluorescence signal geometric mean, proportional to anti-Human AF647 binding) was calculated for the live singlet cell population for each primary antibody using FlowJo™ v8 software (BD Biosciences, Franklin Lake, NJ). The Bmax and Kd of each primary antibody were calculated using GraphPad Prism Version 9 (GraphPad Software, San Diego, CA)
The ability of ADCs to bind to cells expressing NaPi2b was assessed. ADCs of a representative humanized variant antibody, v29456 (H1L2), were prepared by conjugation to DL2 and DL1 as described in Example 11. Binding to endogenous high NaPi2b-expressing cell lines IGROV-1 and HCC-78 was assessed by flow cytometry according to methods described in Example 5.
Background: In flow cytometry, cells or beads pass a laser one at a time.

The nature of data set [2]: Stability (fragmentation) in PBS pH 7.4 at 37° C. by LC-MS. In kind it is physicochemical. The settings on record: for apparent % desired proteoforms: PBS 37° C., 0.5 mg/ml. How it is done: Samples were removed after 0, 7 and 14 days and stored at −80° C. until characterization. For characterization, samples were thawed at room temperature and 50 μg were incubated with 5 μg of recombinant EndoS endoglycosidase for one hour at room temperature. An immunoprecipitation slurry was generated by a 45 min incubation of 95 μL/sample of magnetic Sepharose streptavidin-coated beads with 15 μg/sample of biotinylated goat anti-Human IgG Fc capture antibody, followed by 4 washes with PBS pH 7.4 with the aid of a DynaMag™-2 magnet (Invitrogen™).
After deglycosylation, plasma-incubated samples were incubated with 95 μL of the immunoprecipitation slurry for 1.5 hrs at room temperature. Then, the slurry underwent 6 washes with PBS pH 7.4 and 2 washes with LC-MS-grade water with the aid of a DynaMag™-2 magnet (Invitrogen™). A final wash with PBS pH 7.4 was performed before elution. Protein was eluted by incubating beads with 35 μL of LC-MS grade water with 20% acetonitrile and 0.1% formic acid for one hour at room temperature. PBS samples were not immunoprecipitated.
5 μL of the eluted sample were transferred to glass inserts in LC-MS vials. For LC-MS analysis, 1 μL of sample were injected into a Waters™ BioSuite Phenyl Column, 1000 Å, 10 μm, 4.6 mm×75 mm using a Waters™ ACQUITY™ UPLC I-Class HPLC system coupled to a Waters™ Synapt™ G2-Si HDMS with a column temperature of 70 C and a flow rate of 0.3 mL/min. Mobile phases consisted of A: LC-MS grade water with 0.1% v/v formic acid, 0.025 v/v trifluoroacetic acid and 10% v/v isopropyl alcohol in, and B: acetonitrile with 0.1% v/v formic acid and 10% v/v isopropyl alcohol. The column was pre-equilibrated in 10% mobile phase B before injection. Then, a 20 min 10 to 27% mobile phase B gradient was applied, followed by a 2 min 27 to 90% mobile phase B gradient and a column wash of 2 min at 99% mobile phase B.
The column was re-equilibrated to 10% mobile phase B for 2 minutes between runs. ESI was performed in positive mode with 3 kV of capillary voltage, 120 C source temperature, 100 V sampling cone voltage, source offset of 80 V, source gas flow of 0 ml/min, desolvation temperature 500 C, cone gas flow 0 μL/Hr, desolvation gas flow […], nebuliser gas flow 6.5 bar. Data format was continuum with analyser set in sensitivity mode, with a m/z range from 500 to 7000.
Peak integration, MS deconvolution and mass assignments were performed in Protein Metrics Byos® v4.0 using a deconvolution window of 60000-160000 Da with an m/z range of 1000-4000. For all time points, the highest intensity deconvoluted mass was assigned as the reference mass of v29456. […]

B1: v29456: humanized anti-NaPi2b IgG1/kappa antibody H1L2; VH SEQ ID NO:24, VL SEQ ID NO:29 (antibody, V domains shown)
VH: QVQLVQSGAEVKKPGASVKVSCKASGFTFTSYNVHWVRQAPGQGLEWMGAISPGNGDLSYAQKFQGRVTMTRDTSTSTVYMELSSLRSEDTAVYYCARGRTGMGAVDYWGQGTLVTVSS
VL: DVQMTQSPSSLSASVGDRVTITCRASQDVYSYLNWYQQKPGKAVKLLIYYTSRLQSGVPSRFSGSGSGTDYTLTISSLQPEDFATYYCQQYNIFPWTFGQGTKLEIK
modifications: v29452, v29456, v29460 VH (H1); v29453, v29454, v29455, v29456 VL (L2)
In the case of B1, the “Bmax (MFI)” value in data set [1] is listed as 78,059 MFI. In addition, in data set [1], the “Curve Hill Slope (h)” value is given as 1.7. Also, the Kd in data set [1] (apparent Kd) is 0.65 nM. For the same molecule, the “fragmentation in PBS pH 7.4, in words” value in data set [2] (37° C., 7 and 14 days) is “no evidence of fragmentation”. The “apparent % desired proteoforms” value in data set [2] (0 days) came to 99.8%; in data set [2] (7 days), 99.2%; in data set [2] (14 days) it was 99.6%.
